Assays:
[1] = target: T1, GST-tagged full-length ECT2 (Arabidopsis thaliana, UniProt Q9LJE5 1-667); assay: pull-down; GST pull-down: 100 pmol pre-cleared MBP-PAB2 or MBP-PAB4 mixed with 100 pmol GST or GST-ECT2 (full length or fragments) and glutathione magnetic agarose beads, 2 h at 4 °C, IPP buffer (150 mM NaCl, 0.1% NP-40, 10 mM Tris pH 7.4, 0.5 mM DTT); immunoblot with anti-MBP and anti-GST; settings: both partners purified
T1 construct: also called GST-ECT2; Evolutionarily conserved C-terminal region 2
T1 sequence (looked up): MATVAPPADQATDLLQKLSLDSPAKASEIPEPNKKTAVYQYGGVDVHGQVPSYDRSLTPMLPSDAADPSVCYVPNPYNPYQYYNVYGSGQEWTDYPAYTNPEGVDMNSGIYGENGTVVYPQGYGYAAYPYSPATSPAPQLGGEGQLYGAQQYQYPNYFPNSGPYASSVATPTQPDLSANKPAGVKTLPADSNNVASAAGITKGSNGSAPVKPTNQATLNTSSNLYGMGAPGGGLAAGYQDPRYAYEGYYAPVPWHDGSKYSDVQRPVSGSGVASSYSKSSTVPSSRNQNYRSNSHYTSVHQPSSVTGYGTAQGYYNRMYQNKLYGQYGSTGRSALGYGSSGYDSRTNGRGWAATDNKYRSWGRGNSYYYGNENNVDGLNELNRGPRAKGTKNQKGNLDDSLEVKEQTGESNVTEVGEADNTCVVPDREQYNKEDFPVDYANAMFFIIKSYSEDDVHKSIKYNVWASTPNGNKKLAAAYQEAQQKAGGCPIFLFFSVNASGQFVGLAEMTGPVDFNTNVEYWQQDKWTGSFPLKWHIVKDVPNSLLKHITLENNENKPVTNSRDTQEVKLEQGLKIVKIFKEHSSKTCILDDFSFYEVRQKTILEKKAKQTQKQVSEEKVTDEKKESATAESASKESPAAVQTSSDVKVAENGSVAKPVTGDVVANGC

[2] = target: T1, GST-tagged full-length ECT2; assay: pull-down; GST pull-down: purified MBP-ECT3 and SUMO-ECT4 incubated with GST-ECT2 or GST alone, GST magnetic beads, immunoblot with anti-GST, anti-MBP and anti-SUMO; settings: both partners purified

B1: MBP-tagged PAB2 (natural protein, Arabidopsis thaliana, UniProt P42731 1-629, looked up)
chain: MAQVQLQGQTPNGSTAAVTSAPATSGGATATQFGNTSLYVGDLDFNVTDSQLFDAFGQMGTVVTVRVCRDLVTRRSLGYGYVNFTNPQDAARAIQELNYIPLYGKPIRVMYSHRDPSVRRSGAGNIFIKNLDESIDHKALHDTFSSFGNIVSCKVAVDSSGQSKGYGFVQYANEESAQKAIEKLNGMLLNDKQVYVGPFLRRQERDSTANKTKFTNVYVKNLAESTTDDDLKNAFGEYGKITSAVVMKDGEGKSKGFGFVNFENADDAARAVESLNGHKFDDKEWYVGRAQKKSERETELRVRYEQNLKEAADKFQSSNLYVKNLDPSISDEKLKEIFSPFGTVTSSKVMRDPNGTSKGSGFVAFATPEEATEAMSQLSGKMIESKPLYVAIAQRKEDRRVRLQAQFSQVRPVAMQPSVGPRMPVYPPGGPGIGQQMFYGQAPPAMIPPQPGYGYQQQLVPGMRPGGGPVPSFFMPMVQPQQQRPGGGRRPGGIQHSQQQNPMMQQQMHPRGRMFRYPQGRGGSGDVPPYDMGNNMPLTIGALASNLSNATPEQQRTMLGEVLYPLVEQVEAESAAKVTGMLLEMDQTEVLHLLESPEALKAKVAEAMDVLRSVAAGGATEQLASLNLS
notes: also called MBP-PAB2; source: Escherichia coli BL-21 Gold, purified (amylose resin)
binding result [1]: binds

B2: MBP-tagged PAB4 (natural protein, Arabidopsis thaliana, UniProt O22173 1-662, looked up)
chain: MAQVQAPSSHSPPPPAVVNDGAATASATPGIGVGGGGDGVTHGALCSLYVGDLDFNVTDSQLYDYFTEVCQVVSVRVCRDAATNTSLGYGYVNYSNTDDAEKAMQKLNYSYLNGKMIRITYSSRDSSARRSGVGNLFVKNLDKSVDNKTLHEAFSGCGTIVSCKVATDHMGQSRGYGFVQFDTEDSAKNAIEKLNGKVLNDKQIFVGPFLRKEERESAADKMKFTNVYVKNLSEATTDDELKTTFGQYGSISSAVVMRDGDGKSRCFGFVNFENPEDAARAVEALNGKKFDDKEWYVGKAQKKSERELELSRRYEQGSSDGGNKFDGLNLYVKNLDDTVTDEKLRELFAEFGTITSCKVMRDPSGTSKGSGFVAFSAASEASRVLNEMNGKMVGGKPLYVALAQRKEERRAKLQAQFSQMRPAFIPGVGPRMPIFTGGAPGLGQQIFYGQGPPPIIPHQPGFGYQPQLVPGMRPAFFGGPMMQPGQQGPRPGGRRSGDGPMRHQHQQPMPYMQPQMMPRGRGYRYPSGGRNMPDGPMPGGMVPVAYDMNVMPYSQPMSAGQLATSLANATPAQQRTLLGESLYPLVDQIESEHAAKVTGMLLEMDQTEVLHLLESPEALNAKVSEALDVLRNVNQPSSQGSEGNKSGSPSDLLASLSINDHL
notes: also called MBP-PAB4; source: Escherichia coli BL-21 Gold, purified (amylose resin)
binding result [1]: binds

B3: maltose-binding protein (MBP)-tagged ECT3 (natural protein, Arabidopsis thaliana, UniProt F4K1Z0 1-495, looked up)
chain: MANPDHVSDVLHNLSIDPTTKALAPDSETKLQGAYGGNGNDFLLNDELVEATKIGKPSLLSKDGGVTKDKGSNLKKLGYQSAAYNAKGSYGKGAYAYGYYPPAYQYPRHGYTGSYASGKTNLQYQYLTQQGRSAGNGQSYGGYMDNIYSNYGMCGPYTNGYGYGSYGYDSWKYMPNWYAVNNTYKPRNGYHGYGKENIEGLNEMNRGPRAKGFNSQDGSKVMAVSLKEQRVTETEKLSEDVSLLDPKDYNKIDFPETYTEAKFYVIKSYSEDDIHKSIKYSVWSSTPNGNKKLDASYNEAKQKSDGCPVFLLFSVNTSGQFVGLAEMVGPVDFNKTVEYWQQDKWIGCFPVKWHFVKDIPNSSLRHITLENNENKPVTNSRDTQEVKLEQGIKVIKIFKDHASKTCILDDFEFYENRQKIIQERKSKHLQIKKQTLVANADKGVMSKINLVKPQESTTASEDAAALGVAAEVTKESKVVKETELPVEKNAVATAC
notes: also called MBP-ECT3; source: Escherichia coli, purified recombinant protein
binding result [2]: binds
